Experimental data: the supplement of paper PMC11780869

System: Bacillus subtilis
Experiment: cleaved RNA product abundance (RNA/gDNA barcode ratio) relative to median wild-type variant (ratio to wild type); higher = more accumulation of the downstream cleavage product
Details: experiment (reporter, strain, medium): exp 8a: truncated aprE reporter, strain BJT201 with 2% xylose (RNase J1 expressed); cleavage site: glnRA (positions -5 to +31 mutated)
In short: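 B. subtilis strains with chromosomally integrated reporter mRNAs (truncated aprE or tetM) holding barcoded, mutagenized RNase Y cleavage-site windows grew in LB at 37°C from OD600 0.0003 to 0.3. Cleaved product abundance is each construct's RNA:gDNA barcode ratio, scaled to the median construct with the unmutated site. It came from sequencing barcodes of gel-selected, reverse-transcribed cleaved RNA and of genomic DNA.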

First: CGACATGTCCCGCTTCTTTCATTAATCCGGTAGCAACTGTTATGCTATATACATTTACCTTTTAAGAGGAGGAAT
Second: CGACATGTCCCGCTTCTTTCATTAATCCGGTAGCAACTGTTTTGATATATACATTTACCTTTTAAGAGGAGGAAT
The “cleaved RNA product abundance” value of the first is higher: 1.02 for the first, 0.316 for the second.

Going from “CGACATGTCCCGCTTCTTTCATTAATCCGGTAGCAACTGTTTTGCAATATACATTTACCTTTTAAGAGGAGGAAT” to “CGACATGTCCCGCTTCTTTCATTAATCCGGTAGCAACTGTTTTGCTAGATACATTTACCTTTTAAGAGGAGGAAT”, the “cleaved RNA product abundance” value rises from 0.533 to 0.545.

Going from “CGACATGTCCCGCTTCTTTCATTAATCCGGTAGCAACTGTTTTGCTATATACATTTACCTTTTAAGAGGAGGAAT” to “CGACATGTCCCGCTTCTTTCATTAATCCGGTATCAACTGTTTTGCTATATACATTTACCTTTTAAGAGGAGGAAT”, the “cleaved RNA product abundance” value falls from 0.945 to 0.375.

Going from “CGACATGTCCCGCTTCTTTCATTAATCCGTAAACAACTCTTTTGCTATATACATTTACCTTTTAAGAGGAGGAAT” to “CGACATGTCCCGCTTCTTTCATTAATCCGTAAACAACTGTTTTGCTATATACATTTACCTTTTAAGAGGAGGAAT”, the “cleaved RNA product abundance” value falls from 0.202 to 0.159.

Going from “CGACATGTCCCGCTTCTTTCATTAATCCGTAACCAACTGTTTTGCTATATACATTTACCTTTTAAGAGGAGGAAT” to “CGACATGTCCCGCTTCTTTCATTAATCCGTAAGCAACAGTTTTGCTATATACATTTACCTTTTAAGAGGAGGAAT”, the “cleaved RNA product abundance” value rises from 0.187 to 0.348.

First: CGACATGTCCCGCTTCTTTCATTAATCCGTAAGCAACTGATTTGCTATATACATTTACCTTTTAAGAGGAGGAAT
Second: CGACATGTCCCGCTTCTTTCATTAATCCGTAAGCAACTGTATTGCTATATACATTTACCTTTTAAGAGGAGGAAT
The “cleaved RNA product abundance” value of the first is lower: 0.25 for the first, 0.367 for the second.

First: CGACATGTCCCGCTTCTTTCATTAATCCGTAAGCAACTGTTTCGCTATATACATTTACCTTTTAAGAGGAGGAAT
Second: CGACATGTCCCGCTTCTTTCATTAATCCGTAAGCAACTGTTTGGCTATATACATTTACCTTTTAAGAGGAGGAAT
The “cleaved RNA product abundance” value of the first is lower: 0.145 for the first, 0.371 for the second.

Going from “CGACATGTCCCGCTTCTTTCATTAATCCGTAAGCAACTGTTTTACTATATACATTTACCTTTTAAGAGGAGGAAT” to “CGACATGTCCCGCTTCTTTCATTAATCCGTAAGCAACTGTTTTCCTATATACATTTACCTTTTAAGAGGAGGAAT”, the “cleaved RNA product abundance” value falls from 0.583 to 0.354.

Compared with “CGACATGTCCCGCTTCTTTCATTAATCCGTAAGCAACTGTTTTGATATATACATTTACCTTTTAAGAGGAGGAAT”, “CGACATGTCCCGCTTCTTTCATTAATCCGTAAGCAACTGTTTTGCCATATACATTTACCTTTTAAGAGGAGGAAT” is lower in “cleaved RNA product abundance” value: 0.329 for the first, 0.295 for the second.

First: CGACATGTCCCGCTTCTTTCATTAATCCGTAAGCAACTGTTTTGCTAAATACATTTACCTTTTAAGAGGAGGAAT
Second: CGACATGTCCCGCTTCTTTCATTAATCCGTAAGCAACTGTTTTGCTACATACATTTACCTTTTAAGAGGAGGAAT
The “cleaved RNA product abundance” value of the first is lower: 0.36 for the first, 0.38 for the second.

Compared with “CGACATGTCCCGCTTCTTTCATTAATCCGTAAGCAACTGTTTTGCTATATAAATTTACCTTTTAAGAGGAGGAAT”, “CGACATGTCCCGCTTCTTTCATTAATCCGTAAGCAACTGTTTTGCTATATACAATTACCTTTTAAGAGGAGGAAT” is higher in “cleaved RNA product abundance” value: 0.474 for the first, 0.478 for the second.

First: CGACATGTCCCGCTTCTTTCATTAATCCGTAAGCAACTGTTTTGCTATATACATATACCTTTTAAGAGGAGGAAT
Second: CGACATGTCCCGCTTCTTTCATTAATCCGTAAGCAACTGTTTTGCTATATACATTAACCTTTTAAGAGGAGGAAT
The “cleaved RNA product abundance” value of the first is lower: 0.551 for the first, 0.756 for the second.

Going from “CGACATGTCCCGCTTCTTTCATTAATCCGTAAGCAACTGTTTTGCTATATACATTTAACATTTAAGAGGAGGAAT” to “CGACATGTCCCGCTTCTTTCATTAATCCGTAAGCAACTGTTTTGCTATATACATTTAACTTTTAAGAGGAGGAAT”, the “cleaved RNA product abundance” value rises from 0.275 to 0.79.

Going from “CGACATGTCCCGCTTCTTTCATTAATCCGTAAGCAACTGTTTTGCTATATACATTTACATTTTAAGAGGAGGAAT” to “CGACATGTCCCGCTTCTTTCATTAATCCGTAAGCAACTGTTTTGCTATATACATTTACCATTTAAGAGGAGGAAT”, the “cleaved RNA product abundance” value falls from 0.531 to 0.381.

Going from “CGACATGTCCCGCTTCTTTCATTAATCCGTAAGCAACTGTTTTGCTATATACATTTACCTTTTAAGAGGAGGAAT” to “CGACATGTCCCGCTTCTTTCATTAATCCGTAAGCAACTGTTTTGCTATATACATTTACGTTTTAAGAGGAGGAAT”, the “cleaved RNA product abundance” value rises from 0.434 to 0.475.

Compared with “CGACATGTCCCGCTTCTTTCATTAATCCGTAAGCAACTGTTTTGCTATATACATTTACTTTTTAAGAGGAGGAAT”, “CGACATGTCCCGCTTCTTTCATTAATCCGTAAGCAACTGTTTTGCTATATACATTTATCTTTTAAGAGGAGGAAT” is lower in “cleaved RNA product abundance” value: 0.641 for the first, 0.536 for the second.

Going from “CGACATGTCCCGCTTCTTTCATTAATCCGTAAGCAACTGTTTTGCTATATACATTTCCCTTTTAAGAGGAGGAAT” to “CGACATGTCCCGCTTCTTTCATTAATCCGTAAGCAACTGTTTTGCTATATACCTTTACCTTTTAAGAGGAGGAAT”, the “cleaved RNA product abundance” value falls from 0.212 to 0.207.

First: CGACATGTCCCGCTTCTTTCATTAATCCGTAAGCAACTGTTTTGCTATATACTTTTACCTTTTAAGAGGAGGAAT
Second: CGACATGTCCCGCTTCTTTCATTAATCCGTAAGCAACTGTTTTGCTATATATATTTACCTTTTAAGAGGAGGAAT
The “cleaved RNA product abundance” value of the first is lower: 0.307 for the first, 0.449 for the second.

Compared with “CGACATGTCCCGCTTCTTTCATTAATCCGTAAGCAACTGTTTTGCTATGTACATTTACCTTTTAAGAGGAGGAAT”, “CGACATGTCCCGCTTCTTTCATTAATCCGTAAGCAACTGTTTTGGTATATACATTTACCTTTTAAGAGGAGGAAT” is higher in “cleaved RNA product abundance” value: 0.0895 for the first, 0.312 for the second.

Going from “CGACATGTCCCGCTTCTTTCATTAATCCGTAAGCAACTGTTTTGTTATATACATTTACCTTTTAAGAGGAGGAAT” to “CGACATGTCCCGCTTCTTTCATTAATCCGTAAGCAACTGTTTTTCTATATACATTTACCTTTTAAGAGGAGGAAT”, the “cleaved RNA product abundance” value rises from 0.391 to 0.508.

Going from “CGACATGTCCCGCTTCTTTCATTAATCCGTAAGCAACTTTTTTGCTATATACATTTACCTTTTAAGAGGAGGAAT” to “CGACATGTCCCGCTTCTTTCATTAATCCGTAAGCAATTGTTTTGCTATATACATTTACCTTTTAAGAGGAGGAAT”, the “cleaved RNA product abundance” value falls from 0.82 to 0.524.

Going from “CGACATGTCCCGCTTCTTTCATTAATCCGTAAGCATCTGTTTTGCTATATACATTTACCTTTTAAGAGGAGGAAT” to “CGACATGTCCCGCTTCTTTCATTAATCCGTAAGCTACTGTTTTGCTATATACATTTACCTTTTAAGAGGAGGAAT”, the “cleaved RNA product abundance” value falls from 0.322 to 0.123.

Compared with “CGACATGTCCCGCTTCTTTCATTAATCCGTAAGGAACTGTTTTGCTATATACATTTACCTTTTAAGAGGAGGAAT”, “CGACATGTCCCGCTTCTTTCATTAATCCGTAATCAACTGTTTTGCTATATACATTTACCTTTTAAGAGGAGGAAT” is lower in “cleaved RNA product abundance” value: 0.32 for the first, 0.265 for the second.
